# Assay results as given in the supplement of paper PMC10567573.
# B1: WEE1 (parent)
# chain: FISRTSIPNAASEEGDEDDWASNK
# Variants of: B1
# Assay: protein stability index of a GFP-peptide fusion (GPS, HEK-293T) (PSI 1-6); higher = more stable
# Settings: c terminus: a fixed tail appended
# 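Note: lentivirally expressed fusions sorted by FACS into six bins by GFP to DsRed ratio, PSI derived from sequencing read proportions per bin multiplied by bin number.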
row,Variant,protein stability index
1,K24C,4.15
2,K24E,4.69
3,K24I,4.12
4,K24R,3.08
5,K24F,4.04
6,K24N,4.23
7,K24M,3.82
8,K24W,2.94
9,K24H,3.91
10,K24L,4.04
11,K24V,3.58
12,K24S,4.53
13,K24Y,3.94
14,K24A,4.19
15,K24Q,4.46
16,K24T,4.12
17,K24P,4.54
18,K24D,4.73
19,K24G,4.01
20,S12P,4.18
21,S12T,3.56
22,S12C,3.97
23,S12R,4.37
24,S12Q,4.3
25,S12L,4.03
26,S12D,4.26

row,Variant,protein stability index
1,S12E,4.34
2,S12M,3.68
3,S12W,3.47
4,S12Y,3.76
5,S12A,3.64
6,S12G,4.13
7,S12H,3.93
8,S12I,3.85
9,S12K,3.75
10,S12V,3.91
11,S12F,3.68
12,S12N,4.07
13,A21Y,3.9
14,A21Q,3.62
15,A21K,4.21
16,A21C,4.1
17,A21L,3.29
18,A21R,4.39
19,A21M,3.77
20,A21W,3.53
21,A21P,3.7
22,A21V,3.81
23,A21G,4.63
24,A21T,4.59
25,A21E,4.5
26,A21I,3.83

row,Variant,protein stability index
1,A21S,4.1
2,A21F,3.72
3,A21H,4.09
4,A21N,3.76
5,A21D,4.77
6,G15Q,3.78
7,G15P,3.79
8,G15S,4.42
9,G15M,3.72
10,G15V,4.46
11,G15D,4.12
12,G15Y,4.13
13,G15R,3.26
14,G15W,3.27
15,G15A,4.17
16,G15F,3.83
17,G15I,4.29
18,G15E,4.62
19,G15C,4.51
20,G15H,3.91
21,G15T,4.17
22,G15K,4.18
23,G15N,3.78
24,G15L,3.74
25,D16P,3.55
26,D16F,3.63

row,Variant,protein stability index
1,D16N,3.8
2,D16A,3.72
3,D16S,3.65
4,D16M,3.61
5,D16L,3.83
6,D16E,3.94
7,D16Q,4.02
8,D16V,3.86
9,D16R,4.17
10,D16I,4
11,D16H,3.23
12,D16G,3.76
13,D16T,3.49
14,D16W,3.23
15,D16Y,3.46
16,D16K,3.81
17,D16C,3.74
18,W20E,4.75
19,W20K,3.42
20,W20C,4.75
21,W20M,4.44
22,W20S,4.93
23,W20A,4.79
24,W20T,4.46
25,W20N,4.51
26,W20G,4.52

row,Variant,protein stability index
1,W20H,4.44
2,W20P,4.57
3,W20L,4.23
4,W20D,4.92
5,W20Y,4.23
6,W20Q,4.7
7,W20F,4.81
8,W20R,4.46
9,W20I,4.21
10,W20V,4.81
11,N9Q,4.28
12,N9L,3.79
13,N9P,3.91
14,N9S,3.84
15,N9V,3.93
16,N9G,4.38
17,N9K,4.13
18,N9H,3.93
19,N9F,2.87
20,N9E,4.64
21,N9I,3.77
22,N9A,3.66
23,N9Y,2.35
24,N9C,3.44
25,N9W,2.46
26,N9R,3.35

row,Variant,protein stability index
1,N9T,4.21
2,N9D,4.34
3,N9M,3.25
4,D18R,3.81
5,D18E,4.22
6,D18G,3.55
7,D18F,2.5
8,D18P,3.6
9,D18K,3.76
10,D18Q,3.56
11,D18V,3.35
12,D18S,3.46
13,D18A,3.62
14,D18I,3.53
15,D18L,3.16
16,D18Y,2.5
17,D18M,3.03
18,D18W,2.54
19,D18H,2.23
20,D18C,3.28
21,D18T,3.5
22,D18N,3.27
23,D19H,3.61
24,D19A,3.77
25,D19I,2.67
26,D19G,3.82

row,Variant,protein stability index
1,D19C,3.34
2,D19E,3.96
3,D19Q,3.87
4,D19K,3.77
5,D19T,3.58
6,D19W,2.37
7,D19F,2.31
8,D19R,3.5
9,D19S,3.78
10,D19P,3.37
11,D19M,3.06
12,D19L,2.48
13,D19V,3.02
14,D19N,3.72
15,D19Y,3.27
16,E13S,3.9
17,E13I,3.03
18,E13V,3.29
19,E13K,3.5
20,E13G,3.78
21,E13C,3.62
22,E13M,3.64
23,E13W,3.54
24,E13T,3.55
25,E13N,3.51
26,E13Y,3.46

row,Variant,protein stability index
1,E13A,3.85
2,E13R,4.15
3,E13P,4.43
4,E13D,3.68
5,E13L,3.5
6,E13H,3.67
7,E13Q,3.81
8,E13F,3.65
9,A11N,3.79
10,A11P,3.95
11,A11W,2.45
12,A11V,3.92
13,A11G,4.23
14,A11E,4.37
15,A11Y,3.63
16,A11Q,4.21
17,A11F,3.47
18,A11T,4.19
19,A11R,3.78
20,A11D,4.12
21,A11M,3.95
22,A11S,4.23
23,A11I,3.48
24,A11C,3.47
25,A11K,3.69
26,A11L,4.13

row,Variant,protein stability index
1,A11H,4.4
2,E17K,3.73
3,E17A,3.73
4,E17V,3.35
5,E17H,4.05
6,E17D,4.06
7,E17Y,3.59
8,E17G,3.75
9,E17N,2.13
10,E17Q,3.79
11,E17P,3.37
12,E17W,3.04
13,E17M,3.67
14,E17F,3.01
15,E17S,3.72
16,E17R,3.67
17,E17L,3.11
18,E17C,3.43
19,E17I,3.8
20,E17T,3.64
21,N23A,3.94
22,N23D,3.92
23,N23G,4.33
24,N23Q,3.82
25,N23H,3.76
26,N23S,4.16

row,Variant,protein stability index
1,N23F,3.94
2,N23R,4.21
3,N23W,3.65
4,N23L,3.45
5,N23M,3.57
6,N23V,2.71
7,N23I,3.79
8,N23C,3.73
9,N23K,3.93
10,N23T,4.22
11,N23Y,3.64
12,N23P,3.67
13,N23E,4.22
14,A10H,4.06
15,A10V,3.57
16,A10R,3.97
17,A10S,4.34
18,A10L,3.93
19,A10W,2.15
20,A10G,4.13
21,A10D,3.15
22,A10N,3.86
23,A10T,3.89
24,A10K,3.65
25,A10F,3.24
26,A10M,3.54

row,Variant,protein stability index
1,A10C,3.67
2,A10Y,3.17
3,A10I,3.56
4,A10Q,4.16
5,A10P,4.21
6,A10E,4.35
7,S22C,3.87
8,S22L,3.52
9,S22N,4.11
10,S22G,2.83
11,S22H,3.92
12,S22R,3.99
13,S22T,4.23
14,S22E,4.18
15,S22I,4.24
16,S22V,3.96
17,S22K,4.38
18,S22D,4.51
19,S22Y,4.08
20,S22P,3.14
21,S22A,4.15
22,S22Q,3.9
23,S22M,3.88
24,S22F,3.96
25,S22W,2.71
26,E14L,3.56

row,Variant,protein stability index
1,E14M,3.79
2,E14C,4.11
3,E14R,3.39
4,E14D,3.88
5,E14A,4.43
6,E14F,3.53
7,E14Y,4.02
8,E14G,3.33
9,E14N,3.78
10,E14I,3.64
11,E14H,3.75
12,E14T,3.99
13,E14Q,3.91
14,E14W,3.02
15,E14P,3.98
16,E14K,4.03
17,E14S,3.66
18,E14V,3.35
